{"source": "paper PMC9962925", "about": "“PKD autoinhibition in trans regulates activation loop autophosphorylation in cis” (Proceedings of the National Academy of Sciences of the …, 2023)", "molecules": {"B1": {"name": "PKD1^KD S738E (domain or fragment, human, UniProt Q15139 570-890, looked up)", "chain": "QIQENVDISTVYQIFPDEVLGSGQFGIVYGGKHRKTGRDVAIKIIDKLRFPTKQESQLRNEVAILQNLHHPGVVNLECMFETPERVFVVMEKLHGDMLEMILSSEKGRLPEHITKFLITQILVALRHLHFKNIVHCDLKPENVLLASADPFPQVKLCDFGFARIIGEKEFRRSVVGTPAYLAPEVLRNKGYNRSLDMWSVGVIIYVSLSGTFPFNEDEDIHDQIQNAAFMYPPNPWKEISHEAIDLINNLLQVKMRKRYSVDKTLSHPWLQDYQTWLDLRELECKIGERYITHESDDLRWEKYAGEQGLQYPTHLINPSAS", "notes": "Protein kinase D1 (PKD1), human, kinase domain construct, residues 570 to 890; also called single glutamate substitution of S738; source: recombinant, purified to homogeneity"}, "B2": {"name": "PKD1^KD S742E (domain or fragment, human, UniProt Q15139 570-890, looked up)", "chain": "B1 chain with E169S, S173E", "notes": "Protein kinase D1 (PKD1), human, kinase domain construct, residues 570 to 890; also called single glutamate substitution of S742; source: recombinant, purified to homogeneity"}, "B3": {"name": "PKD1^KD 2A (S738A/S742A) (domain or fragment, human, UniProt Q15139 570-890, looked up)", "chain": "B1 chain with E169A, S173A", "notes": "the sites are S738 and S742; source: recombinant, purified to homogeneity"}}, "key": {"[1]": {"target": "PKD1 kinase domain construct, unphosphorylated (PKD1^KD 0P), wild type (human) (UniProt Q15139)", "assay": "SEC; analytical size exclusion chromatography of purified proteins (Fig. 1C); elution volumes calibrated to monomer and dimer masses by SEC-MALS"}, "[2]": {"target": "PKD1 kinase domain construct, unphosphorylated (PKD1^KD 0P), wild type (human) (UniProt Q15139)", "assay": "SEC-MALS; 60 uL of purified protein at 2 mg/mL on an S200 10/300 column, room temperature, 20 mM HEPES pH 7.4, 150 mM KCl, 1 mM EDTA, 1 mM TCEP, 1% glycerol (Fig. 1H)"}, "[3]": {"target": "PKD1 ubiquitin-like dimerization domain (PKD1^ULD) (human)", "assay": "SEC; analytical size exclusion chromatography of purified proteins (Fig. 1C); elution volumes calibrated to monomer and dimer masses by SEC-MALS"}, "[4]": {"target": "ULD-PKD1^KD chimera with (Gly)5 linker (human)"}, "[5]": {"target": "ULD-PKD1^KD chimera with (Gly)10 linker (human)"}, "[6]": {"target": "the molecule itself", "assay": "SEC; analytical size exclusion chromatography of purified proteins (Fig. 1C); elution volumes calibrated to monomer and dimer masses by SEC-MALS"}}, "note": "Changes are numbered by the printed parent chain. Names and notes keep the numbering of the source.", "data": [{"molecule": "PKD1 kinase domain construct, unphosphorylated (PKD1^KD 0P), wild type (from UniProt Q15139 570-890) (domain or fragment)", "values": [{"measurement": "stoichiometry N", "setting": "[1]", "result": 2}, {"measurement": "stoichiometry N", "setting": "[2]", "result": 2}]}, {"molecule": "PKD1 ubiquitin-like dimerization domain (PKD1^ULD) (domain or fragment)", "values": [{"measurement": "stoichiometry N", "setting": "[3]", "result": 2}]}, {"molecule": "ULD-PKD1^KD chimera with (Gly)5 linker", "values": [{"measurement": "initial catalytic rate of Syntide-2 phosphorylation at 50 nM, against PKD1^KD alone", "setting": "[4]", "result": 5, "unit": "fold"}]}, {"molecule": "ULD-PKD1^KD chimera with (Gly)10 linker", "values": [{"measurement": "initial catalytic rate of Syntide-2 phosphorylation at 50 nM, against PKD1^KD alone", "setting": "[5]", "result": 5, "unit": "fold"}]}, {"molecule": "B1", "values": [{"measurement": "binding result", "setting": "[6]", "result": "binds"}]}, {"molecule": "B2", "values": [{"measurement": "binding result", "setting": "[6]", "result": "binds"}]}, {"molecule": "B3", "values": [{"measurement": "stoichiometry N", "setting": "[6]", "result": 2}]}]}
